Results on two molecules are retold here after paper PMC12514038 (2025).

Like-named read-outs stand apart in the source and are kept apart here.

Holding throughout (test): SPR
The target in test [1] is T1, VACV , residues A3-G181 (vaccinia virus (VACV), UniProt P07612 3-181).
The target of test [2] is T2, MPXV [change], residues A3-G181, C-terminal 6×His tag (pCAGGS, Expi293F) (mpox virus (MPXV)).
The target in test [3] is T1, VACV , residues A3-G181. This is another data set of the same source.
Test [4] has as its target T2, MPXV [change], residues A3-G181, …. The source holds these as a separate data set.
The target of test [5] is T1, VACV , residues A3-G181. The source holds these as a separate data set.

B1: mMM1-16 monoclonal antibody (mouse variable regions, human IgG1/Igκ constant regions) (antibody, V domains shown)
VH: QIQLQQSGAELARPGASVKLSCKASGYTFITYWIQWVKQRPGQGLEWIGAIYPGDGDTRYTQKFKAKATLTADKSSSTAYMQLSTLTSEDSAVYFCAKGDTYPAAMDYWGQGTSVTVSS
VL: DIQMTQSPASLSASVGETVTITCRTSGNIHNYLAWYQQKQGRSPQLLVNNAKTLADGVPSRFSGSGSGTQYSLKINSLQPEDIGSYYCQHFWITPYTFGGGTKLEIK
Consider B1, for which the dissociation constant Kd was determined as 0.72 nM in the test with VACV , residues A3-G181 [1] and 6.3 nM in test [2].

B2: hmMM1-40, humanized mMM1-40 monoclonal antibody (antibody, V domains shown)
VH: QVQLVQSGAEVKKPGASVKVSCKASGYIFTRYWMHWVRQAPGQGLEWMGYINPSTGYTEYNQKFKDRVTMTRDTSTSTVYMELSSLRSEDTAVYYCARSDYTNYVFEYWGQGTLVTVSS
VL: DVVMTQSPLSLPVTLGQPASISCRSSQSLVHSNGNTYLHWFQQRPGQSPRRLIYKVSNRFSGVPDRFSGSGSGTDFTLKISRVEAEDVGVYYCSQSTHVPYTFGGGTKVEIK
Consider B2, for which the dissociation constant Kd worked out at 0.47 nM with VACV , residues A3-G181 [3] and 0.48 nM in test [4]. This molecule also yielded a dissociation rate constant (koff) with VACV , residues A3-G181 [5] of 6.19e-05 s⁻¹.
